The test system of experiment [1] is C. albicans. The experiment is described as follows: Indirect ELISA against intact cells using poly-L-Lysine (PL). The conditions noted are these: 10^4 and 10^5 cells/ml. It is filed as binding, Candida albicans. The protocol: (§1) For this test, C. neoformans (H99), Candida albicans, Giardia lamblia, human lung line cell A549 (ATCC), Escherichia coli and Staphylococcus aureus. Cells were washed in PBS three times and suspended at 10^7 cell/ml density in poly-L-Lysine (5 μg/ml in PBS) for adherence at night at 4° C. The next day, plates were blocked with PBS/BSA 5% and incubated for 1 hour at 37° C., then they are incubated for 1 hour at 37° C. with anti-chitooligomer AcM at 50 μg/ml concentration and diluted at 5 μg/ml. Then, washing with PBS/Tween 0.05% was performed for 3 times and anti-IgM murine peroxidase was added diluted 1:5000 and incubated for 2 hours at 37° C. Plates were washed again and TMB was added and incubated for 30 minutes at 37° C.
(§2) Reaction was stopped with HCl 1 N and reading with spectrophotometer at 450 nm. After this trial, seriated dilutions were performed at density of cells 10^7 until 10 cells/ml to fungi and 10^7 until 10^4 cells/ml to other cellular types and tested of AcM anti-chitooligomer at 25 μg/ml concentration, followed by the same procedures abovementioned. […]
(§3) In this trial, 10^7 cell/ml of C. albicans were used to perform an absorbance curve, in which it was observed that there was a 25 μg/ml concentration reliable signal of both AcM, as above such value the curve starts to enter in plateau, as provided in FIG. 9. […]
(In general: An ELISA detects its analyte on a solid surface through an enzyme-linked reagent.)

The subject of experiment [2] is C. albicans. The experiment is described as follows: Biofilm development, XTT reduction trial. It is filed as cell-based, Candida albicans. Conditions: AcM 25 μg/ml, 48 hours at 37° C., vs fungus without treatment, p<0.05. On the procedure:
C. neoformans (H99 and Cap67) and Candida albicans were cultivated in Sabouraud media for 24 hours at 30° C. Cellular suspensions were centrifuged for 5 minutes at 3000 g, washed 3 times in PBC and suspended in minimum media (20 mg/ml thiamin, 30 mm glucose, 26 mM glycine, 20 mM MgSO4, and 58.8 mM KH2PO4). Then, they were added to 96-well plates (100 μl/well—1×10^6 células/ml) and cultivated for 48 hours at 37° C. at presence of AcM (HC6/DD11 and AF1/CC5) and AcM anti-GXM 18B7 (only to H99) at 25 μg/ml concentration, keeping under agitation for 30 minutes, for AcM total homogenization with fungi. As control, drug AmB was used at 1 μg/ml concentration.
Two analysis systems were performed: in the first, cells were washed, so that non-adhering cells were removed and only cells bonded to biofilm under development remained; in the second system, cells were not washed and all cells adhered or not to substrate were quantified.
Viable cell metabolic activity in both trials was assessed by the method based on decrease of XTT (2-methoxy-4-nitro-5-sulfophenyl)-5-[(phenylamino) carbonyl]-2H-tetrazolium hydroxide) in spectrophotometer at 492 nm of wavelength.
AcMs were tested (25 μg/ml) against three fungus species (C. albicans, C. neoformans—H99—and acapsular mutant of C. neoformans—Cap67), with control by AcM anti-GXM 18B7 (25 μg/ml) only to H99. In the first assay (FIGS. 14A and B), cellular suspensions were washed to remove non-adhering cells to substrate. […] In second assay (FIGS. 14C and D), cellular suspensions were not washed, and again AcM inhibited biofilm development (p<0.05) compared to cell not treated with antibodies. In both assays, cell growth was observed.
A general note: Tetrazolium assays rely on reduction of a dye to a coloured formazan, in cell work by metabolically active cells.

Experiment [3] has as its system C. neoformans (H99). The experiment is described as follows: Dot Blot against intact cells using PL. Type of experiment: binding, Cryptococcus neoformans. Conditions: AcM 25 μg/ml; cells in 5 μg/ml PL diluted in base 10 from 10^7 cell/ml; 3 independent experiments. The protocol:
C. neoformans (H99) and Candida albicans in 10^7 cell/ml density until 10 cells/ml were suspended in poly-L-Lysine solution (5 μg/ml in PBS) and 10 μl were loaded in nitrocellulose membranes. Then, the same steps for ELISA were followed, however, 25 μg/ml concentration of AcM anti-chitooligomers. Membrane was cut and deposited in 96-well plates, to which 50 μl TMB was added and incubated for 30 minutes at 37° C. Volume was removed and transferred to a new plate, to which stop reaction was added with HCl 1 N and read with spectrophotometer at 450 nm.
The principle used in this trial was the same of ELISA and was based on the load presented by fungi. As nitrocellulose membrane has negative load, PL was used to check positive load to fungus, and consequently have bond to membrane.
As provided in FIG. 11, it was initially diluted in 5 μg/ml of PL at 10^7 cell/ml concentration and diluted in base 10. In this trial, it was evidenced that AcM HC6/DD11 was capable to bond to C. albicans up to 10^4 cell/ml order, which counters C. neoformans, that was identified to 10^6 cell/ml order. 3 independent experiments were performed to each trial. Example 16.7—Immunofluorescence

Experiment [4] has as its system C. neoformans (H99). In words: Indirect ELISA against intact cells using poly-L-Lysine (PL). It is filed as binding, Cryptococcus neoformans. The conditions noted are these: 10^4 and 10^5 cells/ml. On the procedure: as §1, §2, §3

B1: HC6/DD11: murine IgM monoclonal antibody against chitooligomers (chitotriose); VH SEQ ID NO: 15, VL SEQ ID NO: 16 (antibody, listed as Mus musculus, V domains shown)
VH: STGQVKLEESGGGLVQPGGSRKLSCAASGFTFSDYGMAWVRQAPGKGPEWVAFISNLAYSIYYADTVTGRFTISRENAKNTLYLEMSSLRSEDTAMYYCARDYYGSSYWYFDVWGAGTTVTAPC
VL: ATNSCISRGEVTITCSASSSVSYMHWFQQKPGTSPKLWIYSTSNLASGVPARFSGSGSGTSYSLTISRMEAEDAATYYCQQRSSYPLTFGAGTKLELKRADAAPTVSLET
As for B1, the “ELISA signal in cell saturation curve” value in experiment [1] and in experiment [4] was “slightly more sensitive” in each case. Besides, the “biofilm development (XTT reduction)” value in experiment [2] (non-washed cells) and in experiment [2] (washed cells) was “reduced biofilm development significantly” throughout. In experiment [3], the “cell density down to which fungus was identified (Dot Blot)” value is listed as 10^6 cell/ml.

Source of the values: patent US12686712B2, “Antibody, related use, pharmaceutical composition including method for diagnosing fungal infections, fungal infection diagnosis kit and method for treating fungal infections” (priority 2020, dated 2026).
